Data on 8 substances can be found in PMC9489782.

Some targets named below: IGFBP5 K128D (human) (UniProt P24593); FL IGFBP5 (human) (UniProt P24593); IGFBP5 K128A (human) (UniProt P24593).
Assay [1] has as its target catalytically inactive full-length (FL) PAPP-A (E483A) (human).
Assay [2] has as its target PAPP-A triple mutant L1254A/F1257A/H1211A (human).
The target of assay [3] is PAPP-A^4C4S (C1112S, C1125S, C1130S and C1135S) (human).
In assay [4] the target is PAPP-A^1100-1135* (PAPP-A^1100-1135 replaced with PAPP-A2^1125-1162) (human).
Assay [5] concerns the target N-terminal Alexa Fluor 568 conjugated IGFBP5^121-143 (human). Kind of assay: fluorescence polarisation; direct binding: 5 nM N-terminal Alexa Fluor 568 IGFBP5^121-143, serial dilutions of WT PAPP-A (5.65 uM to 33 nM), PBS, room temperature, read at 10 min; EC50 of the fit taken as KD.
Assay [6] concerns the target Wild type (WT) PAPP-A (auto-cleaved) (human) (UniProt Q13219). Kind of assay: SEC-MALS; Superdex200 Increase 10/300 GL in PBS, 0.5 mL/min; PAPP-A and PAPP-A (E483A) 100 uL of 1 mg/mL; PAPP-A2 100 uL of 1, 3 and 6 mg/mL.
Assay [7] has the same target.
The target is the same in assay [8]. Kind of assay: SEC; Superose 6 Increase 10/300 in 1X PBS, 0.5 mL/min; 0.2 mL of each protein at 1.4 uM; fractions on reduced SDS-PAGE.
Assay [9] deals with FAM-labeled FL IGFBP5 (human) (UniProt P24593). Kind of assay: fluorescence polarisation; direct binding: 5 nM FAM-labeled FL IGFBP5, serial dilutions of PAPP-A (E483A) (10 uM-50 nM), PBS, room temperature, read at 10 min; EC50 of the fit taken as KD.
In assay [10] the target is chimeric PAPP-A^1100-1111* (loop 2 replaced by amino acids 1125-1136 from PAPP-A2) (human).

PAPP-A (1267), sequence (Q13219 23-1627): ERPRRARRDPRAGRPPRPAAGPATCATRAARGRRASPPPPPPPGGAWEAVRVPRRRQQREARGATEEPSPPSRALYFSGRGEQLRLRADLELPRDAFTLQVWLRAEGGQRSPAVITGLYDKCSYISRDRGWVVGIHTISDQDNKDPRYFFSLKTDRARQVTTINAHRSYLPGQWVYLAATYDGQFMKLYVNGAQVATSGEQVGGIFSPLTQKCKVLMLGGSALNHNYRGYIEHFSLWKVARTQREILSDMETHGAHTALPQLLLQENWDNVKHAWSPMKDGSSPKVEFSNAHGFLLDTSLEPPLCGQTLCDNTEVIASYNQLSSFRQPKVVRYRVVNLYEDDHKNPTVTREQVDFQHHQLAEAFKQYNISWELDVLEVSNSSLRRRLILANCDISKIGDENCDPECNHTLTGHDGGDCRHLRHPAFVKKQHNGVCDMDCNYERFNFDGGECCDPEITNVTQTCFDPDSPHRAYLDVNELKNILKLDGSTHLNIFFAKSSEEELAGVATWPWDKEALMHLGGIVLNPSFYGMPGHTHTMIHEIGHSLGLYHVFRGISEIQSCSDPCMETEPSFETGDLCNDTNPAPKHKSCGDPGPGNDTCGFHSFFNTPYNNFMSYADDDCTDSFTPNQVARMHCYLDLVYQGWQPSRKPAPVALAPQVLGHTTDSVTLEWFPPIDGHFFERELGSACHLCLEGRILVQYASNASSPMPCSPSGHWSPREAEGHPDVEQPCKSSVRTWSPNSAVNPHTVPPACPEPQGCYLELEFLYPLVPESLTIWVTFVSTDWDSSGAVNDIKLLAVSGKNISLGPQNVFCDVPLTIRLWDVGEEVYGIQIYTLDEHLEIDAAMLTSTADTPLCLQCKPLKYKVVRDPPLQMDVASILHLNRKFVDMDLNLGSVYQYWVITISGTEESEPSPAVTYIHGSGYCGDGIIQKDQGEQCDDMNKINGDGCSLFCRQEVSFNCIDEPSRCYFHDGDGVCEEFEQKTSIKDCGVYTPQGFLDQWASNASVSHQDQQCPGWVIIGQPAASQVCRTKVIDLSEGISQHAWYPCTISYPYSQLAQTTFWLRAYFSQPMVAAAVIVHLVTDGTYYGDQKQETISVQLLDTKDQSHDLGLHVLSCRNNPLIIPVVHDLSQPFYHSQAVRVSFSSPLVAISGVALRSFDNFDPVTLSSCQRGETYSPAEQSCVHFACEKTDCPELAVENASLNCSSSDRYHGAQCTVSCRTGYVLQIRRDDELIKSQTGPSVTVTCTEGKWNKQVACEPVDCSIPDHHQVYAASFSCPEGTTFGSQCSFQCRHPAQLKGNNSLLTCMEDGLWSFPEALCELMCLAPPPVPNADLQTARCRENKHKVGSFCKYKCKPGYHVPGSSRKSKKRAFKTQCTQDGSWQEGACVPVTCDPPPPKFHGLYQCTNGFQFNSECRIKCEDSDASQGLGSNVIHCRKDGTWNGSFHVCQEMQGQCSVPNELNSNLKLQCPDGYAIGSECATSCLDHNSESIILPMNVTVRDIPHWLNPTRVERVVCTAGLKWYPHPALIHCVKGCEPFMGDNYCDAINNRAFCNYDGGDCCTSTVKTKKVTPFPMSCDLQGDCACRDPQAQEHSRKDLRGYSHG

In assay [1], “C-terminally truncated PAPP-A (1132) (domain or fragment)” came in with an EC50 of IGFBP4 cleavage (400 nM IGFBP4/700 nM IGF1) by the co-expressed PAPP-A (FL, E483A)/PAPP-A (1132) heterodimer, gel-based assay, 37 °C, 4 h of 0.466 nM. PAPP-A (1267) (domain or fragment) displayed an EC50 of IGFBP4 cleavage (400 nM IGFBP4/700 nM IGF1) by PAPP-A (1267), gel-based assay, 37 °C, 4 h in the assay with PAPP-A (1267) (human) of 0.597 nM.

With “PAPP-A triple mutant L1254A/F1257A/H1211A (enzyme)”, the EC50 of IGFBP4 cleavage (400 nM IGFBP4/700 nM IGF1) by the triple mutant, gel-based assay, 37 °C, 4 h in [2] was 2.6 nM. “PAPP-A^4C4S (C1112S, C1125S, C1130S and C1135S) (enzyme)” registered an EC50 of IGFBP4 cleavage (400 nM IGFBP4/700 nM IGF1) by the variant, gel-based assay, 37 °C, 4 h in assay [3] of 0.402 nM. For the substance “PAPP-A^1100-1135* (PAPP-A^1100-1135 replaced with PAPP-A2^1125-1162) (enzyme)”, in assay [4], the EC50 of IGFBP4 cleavage (400 nM IGFBP4/700 nM IGF1) by the variant, gel-based assay, 37 °C, 4 h was 0.954 nM. “Wild type (WT) PAPP-A (auto-cleaved) (from UniProt Q13219 82-1627) (enzyme)” had a Kd in [5] of 380 nM. In addition, the stoichiometry N in [6] and in assay [8] was 2 in each case. Also, the EC50 of IGFBP4 cleavage (400 nM IGFBP4/700 nM IGF1) by WT PAPP-A, gel-based assay, 37 °C, 4 h in [7] was found to be 0.026 nM. The same substance came in with an EC50 (PAPP-A concentration) of proteolysis of 500 nM IGFBP5 K128D by WT PAPP-A, gel-based assay, 37 °C, 4 h in the assay with IGFBP5 K128D (human) of 15.3 nM. The substance further returned an EC50 (PAPP-A concentration) of proteolysis of 500 nM WT IGFBP5 by WT PAPP-A, gel-based assay, 37 °C, 4 h with FL IGFBP5 (human) of 0.053 nM. This substance returned an EC50 (PAPP-A concentration) of proteolysis of 500 nM IGFBP5 K128A by WT PAPP-A, gel-based assay, 37 °C, 4 h with IGFBP5 K128A (human) of 1.3 nM. “catalytically inactive full-length (FL) PAPP-A (E483A) (enzyme)” had a Kd in assay [9] of 250 nM. For “chimeric PAPP-A^1100-1111* (loop 2 replaced by amino acids 1125-1136 from PAPP-A2) (enzyme)”, in assay [10], the EC50 of IGFBP4 cleavage (400 nM IGFBP4/700 nM IGF1) by the variant, gel-based assay, 37 °C, 4 h worked out at 0.519 nM.
